Reference: the supplement of paper PMC9170038

What was measured:
[1] = tested on: MS2 coat protein; assay: apparent KD of MS2 coat protein, switch ON state; designed switch direction (-1 OFF switch, 1 ON switch): -1; higher = weaker reporter binding; conditions: FMN input: 0 or 200 uM; Eterna round: R93 (includes R88 designs)
How it was run: (§1)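 Apparent KD is reported per design as the median of normalised binding-curve fits across its clusters. The RNA switches were made by on-chip transcription from Illumina sequencing clusters. SNAP-549-labelled MS2 coat protein was then added in twofold steps (0.7 or 1.5 nM to 3 µM; 0.8–1.5 h to 10–20 min per step) in 100 mM Tris-HCl pH 7.5, 80 mM KCl, 4 mM MgCl2, without or with constant ligand.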

[2] = tested on: MS2 coat protein; assay: apparent KD of MS2 coat protein, switch OFF state (with FMN for OFF switches, without FMN for ON switches); designed switch direction (-1 OFF switch, 1 ON switch): -1; higher = weaker reporter binding; conditions: FMN input: 0 or 200 uM; Eterna round: R93 (includes R88 designs)
How it was run: as §1

Sequence | apparent KD of MS2 coat protein [1] [nM] | apparent KD of MS2 coat protein [2] [nM]
CUAGUACAUGAGGAUCACCCAUGUCAGGAUAUUGGAUAUGCCAUGGAAAACAUGUUUACAAGAAGGGACUAUAG [EX1 Malc#22] | 32.9 | 36.4
AAGGGACAUGAGGAUCACCCAUGUAAGGAUAUCGGAAAAGGAAAAAAAAAAAAUAAGACGAGAAGGUACAAAAA [Mat - Exclusion 1 - Eli mod - D80] | 70.2 | 73.5
AAGAAAGGAGGAUAUACAUGAGGAUCACCCAUGUAAAAGAAAGAAGGGAAAGAGAAAAGUAGAAGGCCUAAGAA [Wahibre Psamtik I] | 32.7 | 31
AGUAGAUCAGGAUAUACGUGAAAGGUCAAAGUGUCACUUCUACAUGAGGAUCACCCAUGUAGAAGGGAUCUACA [Ex2 Design 122: Not so Super Stable 9] | 12.9 | 12.4
AAGAAACAUGAGGAUCACCCAUGUAAGGAUAUGAAAAAGAAAAGAAAAGAAAGAAGAAUCAGAAGGUACAAAGG [Nakhtnebtepnefer Intef III] | 24.1 | 26.1
AACUGACAUGAGGAUCACCCAUGUCAGGAUAUGCUUCUAGGAAAAAAAAAAACUAGAUGCAGAAGGGAUAUGGA [Design 37 :P Sub-opt 13] | 14.5 | 12.1
UAAAAACAUGAGGAUCACCCAUGUGAGGAUAUGUGAAAAAAAAAAAAAAAAAAAACAAGCAGAAGGCACAAAAA [JR_Exc001_Sub020] | 67.6 | 584
AAAAAGCGAGGAUAUACAUAGCUAAGACGUGUGAGCGAAAAACAUGAGGAUCACCCAUGUAGAAGGCGCAAAAA [Exclusion2-03] | 18.2 | 16.9
AAAUAGCAAGGAUAUACAUGAGGAUCACCCAUGUGAAAAUGAUACGUAAUAGAAUAGAGUAGAAGGUGCAAAUA [Ex 3 Tesla 7] | 25.1 | 28.7
AGAGAGUCAGGAUAUACGAAAGAAAAGGGAAACAACAAGGGACAUGAGGAUCACCCAUGUAGAAGGGACGAGAA [Diamond 99] | 99.8 | 49.8
AAAUGAUGAGGAUAUACAUGAGGAUCACCCAUGUGUAAAAAUAAAUACACAAAAGAAAGUAGAAGGCAUCAAAA [Ex 3 May 12] | 22.7 | 99
AGCAUGUGAGGAUAUGUGACCCUCGUCCUAAGGAUGAGGAAAUAGAAGGCACAUGAGGAUCACCCAUGUGAUGA [Eratusar] | 65.4 | 293
AAGAAGGUAGGAUAUGCUAAAGAAAUAAAAAUAAAUAAAGAACAUGAGGAUCACCCAUGUAGAAGGGCCAAGAA [Mer[...]re] | 47.3 | 27.9
AAAGGAUCAGGAUAUGUGUGGAAAAAGUGUAUCCGAAAAAAACAUGAGGAUCACCCAUGUAGAAGGGAUCCAAA [Mod 3 of Normal (20/19) by Nando, Round 1] | 182 | 464
AAGAAGGCAGGAUAUACAUGAGGAUCACCCAUGUAAAAGAAAGAAAAGGGAAAGAAAAGUAGAAGGGCCAAGAA [Kamose] | 35.4 | 72.1
AAACUACUAGGAUAUGCAGAAAGGGUGUAUCCUUAAACUCCACAUGAGGAUCACCCAUGUAGAAGGAGUAAUCG [Dilaquis] | 32.4 | 46.4
AACAGUACAGGAUAUACAUGAGGAUCACCCAUGUGAAAUAAAAGUGGCGUACCACAAAGUAGAAGGGUACUGAA [Mat - Exclusion 3 - JL mod - D27] | 27.1 | 90.5
AGAAUUGUAGGAUAUACAUGAGGAUCACCCAUGUGGGAGGUGGAGCAAACAAGACGAGGUAGAAGGACAACGAC [JR_Exc003-Sub904] | 134 | 125
AAAAAACAUGAGGAUCACCCAUGUGAGGAUAUCCAAAACAAAAAAAAACAAAACAAAAGGAGAAGGCACAUAAA [Amethyst 54] | 58.8 | 43.1
AACAAGUGAGGAUAUCGGAAAAGAAAAUAAGAUACACAAAACGAGAAGGCACAUGAGGAUCACCCAUGUAAAUA [JR_Exc004_Sub012] | 35.9 | 41.5
